Patent US20220281981A1 (INVECTYS, published 2022)

What was measured:
HLA-G1/5 β2M-free = target: T1, HLA-G1/5 β2M-free (human, UniProt P17693 25-298, limits assumed); assay: flow cytometry, titration of 15E7, readout % of binding
T1 construct: Printed as one antigen, 'HLA-G1/5 β2M-free'; also called HLA-G1/β2M free; HLA-G5/β2M free

HLA-G6 = HLA-G6 (human, UniProt P17693-6 25-227, limits assumed); assay: as above
[1] = target: T2, HLA-G1 β2M-associated, on lentivirus-transduced cells (Jurkat HLA-G1Lv, K562 HLA-G1Lv) (human, UniProt P17693 25-338; P61769 21-119); assay: flow cytometry on Jurkat HLA-G1Lv and K562 HLA-G1Lv cells, GAM-PE detection
T2 construct: whole, on cells; also called HLA-G1 B2M-associated
Description: Flow cytometry analyses were performed using LSR FORTESSA (Beckton Dickinson, Le Pont-de-Claix, France); data were analyzed with FlowJo X software (Tree star, Ashland, USA).

EC50 (read off the curve) (HLA-G1/5 β2M-free): ~0.02 µg/mL
EC50 (read off the curve) (HLA-G6): ~0.1 µg/mL
binding result [1]: no binding
B1: 15E7 monoclonal antibody (antibody, V domains shown)
VH: QVQLQQPGAELVRPGSSVKLSCKASGYTFTDYWMDWVKQRPGQGLEWIGTIYPSDSSTHYNQEFKGKATMTVDKSSSTAYMHLSSLTSEDSAVYYCAREGLAGVFYFDYWGQGTTLTVSS
VL: DVLMTQIPFSLPVSLGDQASISCRSSQSIVHRSGNTYLEWYLQKPGQSPKLLIYKVSNRFSGVPDRFSGSGSGTDFTLKISRVEAEDLGVYYCFQGSHLPPTFGGGTTLEIK
notes: Tested as a monoclonal antibody in flow cytometry and detected with goat anti-mouse IgG; also called 15E7 antibody; anti HLA-G-α3 β2M-free 15E7 antibody
